The supplement of paper PMC9112550, “Optimization of the antimicrobial peptide Bac7 by deep mutational scanning” (BMC Biology, 2022)

System: Escherichia coli TOP10
Test: shrunken log2 fold change of peptide-encoding DNA abundance (4.5 h post-induction vs induction); higher = less antimicrobial activity (less host growth inhibition)
Conditions: time post-induction: 4.5 h; library: site-saturation at positions 5, 18, 19, 20
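Further: peptides expressed intracellularly from a pBAD plasmid library in pooled LB shake-flask culture, induced with 0.3% L-arabinose, DNA abundance read by NGS, three biological replicates, DESeq2 with apeglm shrinkage.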

| Sequence | shrunken log2 fold change |
| --- | --- |
| RRIRRRPPRLPRPRPRPKFIPRP | -0.207 |
| RRIRWRPPRLPRPRPRPPEKPRP | 0.269 |
| RRIRKRPPRLPRPRPRPATVPRP | 0.0874 |
| RRIRDRPPRLPRPRPRPLNEPRP | -0.188 |
| RRIRHRPPRLPRPRPRPWTWPRP | -0.00897 |
| RRIRARPPRLPRPRPRPPPPPRP | 1.46 |
| RRIRTRPPRLPRPRPRPEGTPRP | 0.0681 |
| RRIRFRPPRLPRPRPRPDLKPRP | 0.166 |
| RRIRLRPPRLPRPRPRPNSQPRP | -0.32 |
| RRIRERPPRLPRPRPRPLASPRP | 0.16 |
| RRIRNRPPRLPRPRPRPNAHPRP | -0.456 |
| RRIRFRPPRLPRPRPRPHFPPRP | -0.212 |
| RRIRQRPPRLPRPRPRPPGWPRP | -0.0951 |
| RRIRSRPPRLPRPRPRPHLEPRP | -0.395 |
| RRIRARPPRLPRPRPRPKTLPRP | 0.343 |
| RRIRARPPRLPRPRPRPIIQPRP | -0.206 |
| RRIRRRPPRLPRPRPRPMLFPRP | 0.263 |
| RRIRIRPPRLPRPRPRPISSPRP | -0.16 |
| RRIRFRPPRLPRPRPRPENCPRP | -0.855 |
| RRIRRRPPRLPRPRPRPMETPRP | -0.12 |
| RRIRIRPPRLPRPRPRPDPYPRP | -0.555 |
| RRIRTRPPRLPRPRPRPFITPRP | -0.689 |
| RRIRPRPPRLPRPRPRPCDDPRP | 0.0508 |
| RRIRERPPRLPRPRPRPDVIPRP | -0.502 |
| RRIRFRPPRLPRPRPRPPKHPRP | 0.292 |

| Sequence | shrunken log2 fold change |
| --- | --- |
| RRIRTRPPRLPRPRPRPFYWPRP | -0.348 |
| RRIRYRPPRLPRPRPRPFCMPRP | -0.604 |
| RRIRRRPPRLPRPRPRPWSCPRP | 0.0681 |
| RRIRPRPPRLPRPRPRPTEPPRP | 0.179 |
| RRIRIRPPRLPRPRPRPLEVPRP | -0.0958 |
| RRIRRRPPRLPRPRPRPYFFPRP | -0.0972 |
| RRIRLRPPRLPRPRPRPCRAPRP | 0.146 |
| RRIRGRPPRLPRPRPRPDWCPRP | 1.37 |
| RRIRNRPPRLPRPRPRPEPFPRP | -0.0904 |
| RRIRMRPPRLPRPRPRPKVKPRP | 0.614 |
| RRIRLRPPRLPRPRPRPYNEPRP | -0.78 |
| RRIRMRPPRLPRPRPRPFDLPRP | 0.16 |
| RRIRWRPPRLPRPRPRPDAAPRP | 2.23 |
| RRIRRRPPRLPRPRPRPPCQPRP | 0.767 |
| RRIRLRPPRLPRPRPRPIMAPRP | 0.0391 |
| RRIRRRPPRLPRPRPRPCTGPRP | 0.0659 |
| RRIRCRPPRLPRPRPRPDRWPRP | 0.0613 |
| RRIRPRPPRLPRPRPRPVIQPRP | -0.203 |
| RRIRARPPRLPRPRPRPHSPPRP | 0.122 |
| RRIRNRPPRLPRPRPRPQFIPRP | -0.125 |
| RRIRQRPPRLPRPRPRPYDCPRP | -0.195 |
| RRIRERPPRLPRPRPRPYVEPRP | -0.534 |
| RRIRKRPPRLPRPRPRPVQKPRP | 0.242 |
| RRIRVRPPRLPRPRPRPDMYPRP | -0.0946 |
| RRIRQRPPRLPRPRPRPNRCPRP | -0.0278 |

| Sequence | shrunken log2 fold change |
| --- | --- |
| RRIRVRPPRLPRPRPRPHASPRP | -0.15 |
| RRIRQRPPRLPRPRPRPCSWPRP | 0.171 |
| RRIRMRPPRLPRPRPRPAWDPRP | 0.869 |
| RRIRKRPPRLPRPRPRPGNVPRP | 0.00843 |
| RRIRDRPPRLPRPRPRPRCMPRP | -0.158 |
| RRIRMRPPRLPRPRPRPSHIPRP | -0.659 |
| RRIRLRPPRLPRPRPRPRKFPRP | -0.0381 |
| RRIRFRPPRLPRPRPRPWKWPRP | -0.0196 |
| RRIRSRPPRLPRPRPRPSGRPRP | 0.185 |
| RRIRVRPPRLPRPRPRPQSYPRP | -0.461 |
| RRIRYRPPRLPRPRPRPCCWPRP | 0.0911 |
| RRIRFRPPRLPRPRPRPRMQPRP | 0.206 |
| RRIRVRPPRLPRPRPRPAWCPRP | 0.211 |
| RRIRPRPPRLPRPRPRPCMQPRP | -0.358 |
| RRIRERPPRLPRPRPRPMGWPRP | -0.218 |
| RRIRHRPPRLPRPRPRPPHCPRP | -0.203 |
| RRIRFRPPRLPRPRPRPPHHPRP | -0.0595 |
| RRIRARPPRLPRPRPRPQPAPRP | 0.679 |
| RRIRNRPPRLPRPRPRPNLLPRP | -0.112 |
| RRIRSRPPRLPRPRPRPATLPRP | -0.0555 |
| RRIRVRPPRLPRPRPRPQPFPRP | -0.0258 |
| RRIRRRPPRLPRPRPRPHWWPRP | 0.325 |
| RRIRNRPPRLPRPRPRPGVQPRP | 0.444 |
| RRIRRRPPRLPRPRPRPRNRPRP | -0.0263 |
| RRIRRRPPRLPRPRPRPKEYPRP | -0.0535 |

| Sequence | shrunken log2 fold change |
| --- | --- |
| RRIRARPPRLPRPRPRPEWWPRP | 0.945 |
| RRIRTRPPRLPRPRPRPKMVPRP | -0.0237 |
| RRIRFRPPRLPRPRPRPCKVPRP | 0.0595 |
| RRIRIRPPRLPRPRPRPEILPRP | -0.0902 |
| RRIRLRPPRLPRPRPRPTDWPRP | 0.947 |
| RRIRVRPPRLPRPRPRPCAMPRP | -0.16 |
| RRIRMRPPRLPRPRPRPCMKPRP | -0.125 |
| RRIRARPPRLPRPRPRPHKSPRP | 0.42 |
| RRIRSRPPRLPRPRPRPYQFPRP | 0.0245 |
| RRIRTRPPRLPRPRPRPFFGPRP | 0.0239 |
| RRIRARPPRLPRPRPRPPKEPRP | 0.818 |
| RRIRQRPPRLPRPRPRPWTDPRP | 0.0166 |
| RRIRRRPPRLPRPRPRPVTCPRP | -0.108 |
| RRIRHRPPRLPRPRPRPMQIPRP | 0.093 |
| RRIRRRPPRLPRPRPRPLHGPRP | 0.233 |
| RRIRYRPPRLPRPRPRPHWMPRP | -0.233 |
| RRIRDRPPRLPRPRPRPTWKPRP | 0.0856 |
| RRIRRRPPRLPRPRPRPRSHPRP | -0.033 |
| RRIRCRPPRLPRPRPRPEYTPRP | -0.139 |
| RRIRGRPPRLPRPRPRPDSPPRP | 0.136 |
| RRIRTRPPRLPRPRPRPDNPPRP | -0.371 |
| RRIRTRPPRLPRPRPRPGIQPRP | 0.131 |
| RRIRNRPPRLPRPRPRPVRDPRP | 0.177 |
| RRIRHRPPRLPRPRPRPPHMPRP | -0.115 |
| RRIRWRPPRLPRPRPRPMMTPRP | 0.0544 |

| Sequence | shrunken log2 fold change |
| --- | --- |
| RRIRGRPPRLPRPRPRPHDLPRP | -0.00843 |
| RRIRTRPPRLPRPRPRPWWWPRP | -0.0964 |
| RRIRNRPPRLPRPRPRPLVGPRP | 0.0121 |
| RRIRERPPRLPRPRPRPDIEPRP | -0.0223 |
| RRIRKRPPRLPRPRPRPLPFPRP | -0.11 |
| RRIRMRPPRLPRPRPRPLMTPRP | 1.3 |
| RRIRWRPPRLPRPRPRPRKLPRP | 0.133 |
| RRIRKRPPRLPRPRPRPHDEPRP | 0.261 |
| RRIRARPPRLPRPRPRPDGRPRP | 0.197 |
| RRIRFRPPRLPRPRPRPCFEPRP | -0.0728 |
| RRIRTRPPRLPRPRPRPYKKPRP | -0.317 |
| RRIRVRPPRLPRPRPRPIIFPRP | -0.286 |
| RRIRNRPPRLPRPRPRPMQQPRP | -0.0561 |
| RRIRRRPPRLPRPRPRPVDRPRP | 0.0916 |
| RRIRCRPPRLPRPRPRPITFPRP | -0.167 |
| RRIRYRPPRLPRPRPRPNFMPRP | -0.821 |
| RRIRPRPPRLPRPRPRPMGYPRP | -0.0838 |
| RRIRIRPPRLPRPRPRPKPGPRP | 0.53 |
| RRIRLRPPRLPRPRPRPSCMPRP | -0.362 |
| RRIRLRPPRLPRPRPRPWRNPRP | 0.00408 |
| RRIRARPPRLPRPRPRPIFGPRP | 0.0662 |
| RRIRVRPPRLPRPRPRPIYYPRP | -0.455 |
| RRIRVRPPRLPRPRPRPLAYPRP | 0.0656 |
| RRIRVRPPRLPRPRPRPHSGPRP | -0.022 |
| RRIRHRPPRLPRPRPRPVVAPRP | -0.233 |

| Sequence | shrunken log2 fold change |
| --- | --- |
| RRIRGRPPRLPRPRPRPNGEPRP | 1.81 |
| RRIRGRPPRLPRPRPRPTHSPRP | 0.587 |
| RRIRPRPPRLPRPRPRPKWHPRP | 0.173 |
| RRIRWRPPRLPRPRPRPGPYPRP | -0.161 |
| RRIRERPPRLPRPRPRPLKQPRP | -0.121 |
| RRIRARPPRLPRPRPRPRSVPRP | 0.665 |
| RRIRERPPRLPRPRPRPPQWPRP | 0.0679 |
| RRIRWRPPRLPRPRPRPDNHPRP | -0.299 |
| RRIRYRPPRLPRPRPRPDTSPRP | -0.0824 |
| RRIRGRPPRLPRPRPRPELVPRP | 1.58 |
| RRIRQRPPRLPRPRPRPHATPRP | -0.0615 |
| RRIRKRPPRLPRPRPRPGLMPRP | 0.343 |
| RRIRNRPPRLPRPRPRPLAHPRP | 0.212 |
| RRIRYRPPRLPRPRPRPEMCPRP | -0.238 |
| RRIRRRPPRLPRPRPRPMKMPRP | 0.18 |
| RRIRSRPPRLPRPRPRPSCKPRP | -0.797 |
| RRIRHRPPRLPRPRPRPLFSPRP | -0.888 |
| RRIRIRPPRLPRPRPRPITHPRP | -0.329 |
| RRIRTRPPRLPRPRPRPHKHPRP | -0.417 |
| RRIRNRPPRLPRPRPRPNQAPRP | -0.0207 |
| RRIRPRPPRLPRPRPRPHTVPRP | -0.214 |
| RRIRPRPPRLPRPRPRPDTFPRP | -0.0596 |
| RRIRIRPPRLPRPRPRPHILPRP | -1 |
| RRIRMRPPRLPRPRPRPTRSPRP | 1.35 |
| RRIRARPPRLPRPRPRPHWGPRP | 0.119 |
